Results on 2 substances are retold here after paper PMC9124243.

Read-outs that look alike come from different tables or passages of the source.

In assay [1] the target is Mycobacterium tuberculosis DnaK, wild-type, full-length (M. tuberculosis) (UniProt P9WMJ9).
For assay [2] the target is unchanged. The source holds these as a separate data set.

“Pz-Val-Val-Pro-photoLeu-OMe (7) (peptide)” returned an IC50 in DnaK-DnaJ2-GrpE ATPase dose-response assay in assay [1] of 52.5 µM. Pz-Val-Val-Pro-Leu-OH (2) (peptide) yielded an IC50 in DnaK-DnaJ2-GrpE ATPase dose-response assay in assay [2] of 192 µM.
